Experimental data from patent EP4537907A1.

Tests used:
[1] = target: CD44 on human lung fibroblasts (human) (UniProt P16070); test: LRC-TriCEPS ligand-receptor capture on living human lung fibroblasts (n=3 donors), LC-MS/MS enrichment; reference ligand transferrin (TRFE)
[2] = target: CD248 on human lung fibroblasts (human) (UniProt Q9HCU0); test: as above
[3] = target: ADRB1 on human lung fibroblasts (human) (UniProt P08588); test: as above
[4] = target: NRP1 on human lung fibroblasts (human) (UniProt O14786); test: as above
[5] = target: ADT3 in human lung fibroblasts (human) (UniProt P12236); test: as above
[6] = target: RECK on human lung fibroblasts (human) (UniProt O95980); test: as above
[7] = target: CAVN1 in human lung fibroblasts (human) (UniProt Q6NZI2); test: as above
Sequence of CAVN1 in human lung fibroblasts (human) (Q6NZI2 whole entry): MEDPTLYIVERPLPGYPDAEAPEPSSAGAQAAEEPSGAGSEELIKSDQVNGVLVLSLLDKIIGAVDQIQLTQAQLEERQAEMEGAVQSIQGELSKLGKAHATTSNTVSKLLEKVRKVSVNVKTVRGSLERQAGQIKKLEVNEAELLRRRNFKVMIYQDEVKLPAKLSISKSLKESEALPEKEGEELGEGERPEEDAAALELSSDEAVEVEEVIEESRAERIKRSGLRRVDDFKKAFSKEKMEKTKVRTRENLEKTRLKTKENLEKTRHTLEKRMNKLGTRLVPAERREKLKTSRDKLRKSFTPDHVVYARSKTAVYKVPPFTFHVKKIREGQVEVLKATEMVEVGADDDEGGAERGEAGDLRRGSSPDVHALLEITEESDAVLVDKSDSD

[8] = target: CSPG4 on human lung fibroblasts (human) (UniProt Q6UVK1); test: as above
Sequence of CSPG4 on human lung fibroblasts (human) (Q6UVK1 30-2322): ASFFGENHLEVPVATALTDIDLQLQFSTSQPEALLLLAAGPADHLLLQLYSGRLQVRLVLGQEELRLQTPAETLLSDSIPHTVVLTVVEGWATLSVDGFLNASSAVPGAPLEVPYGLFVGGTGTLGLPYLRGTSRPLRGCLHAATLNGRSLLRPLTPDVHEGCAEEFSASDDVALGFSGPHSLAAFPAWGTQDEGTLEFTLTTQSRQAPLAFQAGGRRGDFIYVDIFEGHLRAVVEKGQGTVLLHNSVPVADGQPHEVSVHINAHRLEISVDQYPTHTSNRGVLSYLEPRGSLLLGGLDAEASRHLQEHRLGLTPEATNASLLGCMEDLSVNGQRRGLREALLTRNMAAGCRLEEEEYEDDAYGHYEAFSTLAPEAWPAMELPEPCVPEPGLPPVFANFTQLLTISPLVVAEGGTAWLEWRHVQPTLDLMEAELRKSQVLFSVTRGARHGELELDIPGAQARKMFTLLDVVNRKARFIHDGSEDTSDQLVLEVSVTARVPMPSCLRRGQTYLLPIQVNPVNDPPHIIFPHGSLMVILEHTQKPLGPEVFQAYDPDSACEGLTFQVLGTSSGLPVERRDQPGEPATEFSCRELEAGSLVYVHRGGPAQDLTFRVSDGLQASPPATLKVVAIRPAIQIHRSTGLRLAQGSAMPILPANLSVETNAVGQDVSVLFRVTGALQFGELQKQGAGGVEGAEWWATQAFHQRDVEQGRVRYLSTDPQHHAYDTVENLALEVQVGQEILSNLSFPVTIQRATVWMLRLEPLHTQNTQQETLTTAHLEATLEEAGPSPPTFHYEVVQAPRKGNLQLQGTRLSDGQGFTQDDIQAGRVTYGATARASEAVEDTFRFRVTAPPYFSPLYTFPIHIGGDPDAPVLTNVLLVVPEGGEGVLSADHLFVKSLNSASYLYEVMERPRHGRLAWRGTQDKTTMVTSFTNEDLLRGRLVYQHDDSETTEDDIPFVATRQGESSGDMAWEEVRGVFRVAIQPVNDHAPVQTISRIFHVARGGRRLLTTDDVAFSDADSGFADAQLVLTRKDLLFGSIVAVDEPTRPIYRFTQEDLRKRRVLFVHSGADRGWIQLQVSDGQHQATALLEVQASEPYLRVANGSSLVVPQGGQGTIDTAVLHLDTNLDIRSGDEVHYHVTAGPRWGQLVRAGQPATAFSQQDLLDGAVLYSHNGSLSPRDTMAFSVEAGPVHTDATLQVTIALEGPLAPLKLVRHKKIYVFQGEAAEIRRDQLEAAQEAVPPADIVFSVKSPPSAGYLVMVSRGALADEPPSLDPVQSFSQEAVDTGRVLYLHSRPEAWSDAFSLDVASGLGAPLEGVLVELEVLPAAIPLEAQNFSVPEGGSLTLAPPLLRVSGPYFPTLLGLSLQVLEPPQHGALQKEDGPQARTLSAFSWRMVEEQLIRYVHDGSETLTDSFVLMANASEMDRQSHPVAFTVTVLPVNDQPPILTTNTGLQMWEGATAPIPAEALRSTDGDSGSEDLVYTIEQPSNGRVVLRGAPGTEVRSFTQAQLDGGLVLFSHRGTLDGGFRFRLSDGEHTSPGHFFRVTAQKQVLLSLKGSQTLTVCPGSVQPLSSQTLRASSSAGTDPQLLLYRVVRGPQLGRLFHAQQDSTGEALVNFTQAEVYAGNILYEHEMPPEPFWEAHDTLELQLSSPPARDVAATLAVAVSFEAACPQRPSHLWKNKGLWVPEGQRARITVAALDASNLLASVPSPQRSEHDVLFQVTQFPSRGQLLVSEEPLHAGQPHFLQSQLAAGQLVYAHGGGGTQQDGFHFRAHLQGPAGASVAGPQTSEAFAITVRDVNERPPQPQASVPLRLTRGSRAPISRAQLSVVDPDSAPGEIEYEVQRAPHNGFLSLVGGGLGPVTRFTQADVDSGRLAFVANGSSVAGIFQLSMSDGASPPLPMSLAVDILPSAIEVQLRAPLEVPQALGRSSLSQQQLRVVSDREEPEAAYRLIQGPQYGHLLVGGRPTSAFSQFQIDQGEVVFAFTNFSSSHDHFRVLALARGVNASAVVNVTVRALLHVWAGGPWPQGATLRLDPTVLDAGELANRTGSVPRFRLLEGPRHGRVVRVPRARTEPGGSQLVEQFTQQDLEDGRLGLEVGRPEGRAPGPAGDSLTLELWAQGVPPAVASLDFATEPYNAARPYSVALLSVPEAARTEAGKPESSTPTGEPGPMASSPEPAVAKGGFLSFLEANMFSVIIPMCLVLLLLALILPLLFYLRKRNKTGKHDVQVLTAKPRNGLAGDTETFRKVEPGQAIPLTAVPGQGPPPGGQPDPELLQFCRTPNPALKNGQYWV

[9] = target: SNX18 in human lung fibroblasts (human) (UniProt Q96RF0); test: as above
Sequence of SNX18 in human lung fibroblasts (human) (Q96RF0 whole entry): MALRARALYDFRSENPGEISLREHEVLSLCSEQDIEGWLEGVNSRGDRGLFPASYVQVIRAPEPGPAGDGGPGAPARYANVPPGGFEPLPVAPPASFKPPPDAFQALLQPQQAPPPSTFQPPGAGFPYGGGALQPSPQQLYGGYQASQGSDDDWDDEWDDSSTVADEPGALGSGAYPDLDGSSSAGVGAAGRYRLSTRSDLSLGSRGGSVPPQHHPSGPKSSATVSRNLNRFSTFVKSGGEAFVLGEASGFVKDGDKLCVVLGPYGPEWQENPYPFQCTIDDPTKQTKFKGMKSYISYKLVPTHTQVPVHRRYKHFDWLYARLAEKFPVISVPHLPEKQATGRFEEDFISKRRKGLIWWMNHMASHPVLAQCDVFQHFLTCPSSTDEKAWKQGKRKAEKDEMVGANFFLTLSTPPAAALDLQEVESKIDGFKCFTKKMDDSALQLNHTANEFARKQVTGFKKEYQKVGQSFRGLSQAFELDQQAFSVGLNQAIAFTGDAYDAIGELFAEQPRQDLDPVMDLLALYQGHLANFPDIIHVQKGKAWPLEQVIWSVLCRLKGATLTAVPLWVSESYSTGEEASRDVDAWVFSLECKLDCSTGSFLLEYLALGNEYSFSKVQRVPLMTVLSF

[10] = target: GPC1 on human lung fibroblasts (human) (UniProt P35052); test: as above
Sequence of GPC1 on human lung fibroblasts (human) (P35052 24-530): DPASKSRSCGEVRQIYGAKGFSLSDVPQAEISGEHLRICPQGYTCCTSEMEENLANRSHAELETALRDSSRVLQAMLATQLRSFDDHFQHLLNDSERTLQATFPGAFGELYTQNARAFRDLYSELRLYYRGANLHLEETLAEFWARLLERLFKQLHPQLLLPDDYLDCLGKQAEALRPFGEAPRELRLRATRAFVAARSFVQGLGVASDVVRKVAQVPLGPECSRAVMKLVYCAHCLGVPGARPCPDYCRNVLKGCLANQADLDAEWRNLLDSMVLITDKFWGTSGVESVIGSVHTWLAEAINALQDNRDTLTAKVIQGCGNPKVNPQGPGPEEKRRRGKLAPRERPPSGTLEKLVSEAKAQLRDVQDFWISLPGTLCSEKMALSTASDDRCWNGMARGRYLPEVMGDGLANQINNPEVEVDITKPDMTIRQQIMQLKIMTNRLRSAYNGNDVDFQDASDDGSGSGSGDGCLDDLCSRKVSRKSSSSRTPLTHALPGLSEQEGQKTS

[11] = target: CD44 on human lung fibroblasts (human) (UniProt P16070); test: LRC-TriCEPS ligand-receptor capture on living human lung fibroblasts (n=3 donors), LC-MS/MS enrichment; reference ligand BSA
[12] = target: CD248 on human lung fibroblasts (human) (UniProt Q9HCU0); test: as above
[13] = target: ADRB1 on human lung fibroblasts (human) (UniProt P08588); test: as above
[14] = target: NRP1 on human lung fibroblasts (human) (UniProt O14786); test: as above
[15] = target: ADT3 in human lung fibroblasts (human) (UniProt P12236); test: as above
[16] = target: RECK on human lung fibroblasts (human) (UniProt O95980); test: as above
[17] = target: CAVN1 in human lung fibroblasts (human) (UniProt Q6NZI2); test: as above
[18] = target: CSPG4 on human lung fibroblasts (human) (UniProt Q6UVK1); test: as above
[19] = target: SNX18 in human lung fibroblasts (human) (UniProt Q96RF0); test: as above
[20] = target: GPC1 on human lung fibroblasts (human) (UniProt P35052); test: as above

Sequence of ADRB1 on human lung fibroblasts (human) (P08588 whole entry): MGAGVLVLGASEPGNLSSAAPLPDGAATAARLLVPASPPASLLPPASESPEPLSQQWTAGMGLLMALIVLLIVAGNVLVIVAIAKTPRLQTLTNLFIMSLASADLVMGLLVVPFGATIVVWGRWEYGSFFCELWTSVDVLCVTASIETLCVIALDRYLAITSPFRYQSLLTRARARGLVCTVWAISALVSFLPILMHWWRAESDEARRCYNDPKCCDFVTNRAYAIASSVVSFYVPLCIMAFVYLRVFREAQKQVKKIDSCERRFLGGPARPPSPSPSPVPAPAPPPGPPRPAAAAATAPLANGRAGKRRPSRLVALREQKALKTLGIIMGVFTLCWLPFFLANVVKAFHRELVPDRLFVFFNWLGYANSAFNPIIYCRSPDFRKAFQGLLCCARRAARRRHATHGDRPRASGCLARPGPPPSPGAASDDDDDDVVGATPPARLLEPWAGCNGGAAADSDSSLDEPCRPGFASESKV
Sequence of CD248 on human lung fibroblasts (human) (Q9HCU0 18-757): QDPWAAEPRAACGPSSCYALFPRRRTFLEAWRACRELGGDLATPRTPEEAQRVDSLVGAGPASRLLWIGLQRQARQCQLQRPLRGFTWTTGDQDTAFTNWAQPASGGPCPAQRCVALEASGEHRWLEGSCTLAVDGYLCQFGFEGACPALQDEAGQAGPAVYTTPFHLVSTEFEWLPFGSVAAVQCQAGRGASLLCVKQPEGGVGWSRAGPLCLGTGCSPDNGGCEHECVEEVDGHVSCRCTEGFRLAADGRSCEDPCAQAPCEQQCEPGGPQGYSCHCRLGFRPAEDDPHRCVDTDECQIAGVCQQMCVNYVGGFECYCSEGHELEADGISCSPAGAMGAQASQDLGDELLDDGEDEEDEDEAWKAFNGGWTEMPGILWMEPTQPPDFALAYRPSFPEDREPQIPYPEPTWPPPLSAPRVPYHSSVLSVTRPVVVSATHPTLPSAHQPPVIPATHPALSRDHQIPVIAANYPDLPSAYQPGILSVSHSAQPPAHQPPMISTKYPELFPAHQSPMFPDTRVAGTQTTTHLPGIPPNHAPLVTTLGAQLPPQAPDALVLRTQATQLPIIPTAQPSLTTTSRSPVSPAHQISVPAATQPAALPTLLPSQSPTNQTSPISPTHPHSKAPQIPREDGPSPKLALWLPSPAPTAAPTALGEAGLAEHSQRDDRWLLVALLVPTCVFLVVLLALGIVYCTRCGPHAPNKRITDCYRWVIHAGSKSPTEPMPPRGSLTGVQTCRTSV

log2(FC) IGFBP5 vs TRFE (log2 fold change) [1]: -0.6
log2(FC) IGFBP5 vs TRFE (log2 fold change) [2]: -1.8
log2(FC) IGFBP5 vs TRFE (log2 fold change) [3]: -4.1
log2(FC) IGFBP5 vs TRFE (log2 fold change) [4]: -3.7
log2(FC) IGFBP5 vs TRFE (log2 fold change) [5]: -1
log2(FC) IGFBP5 vs TRFE (log2 fold change) [6]: -2.3
log2(FC) IGFBP5 vs TRFE (log2 fold change) [7]: -1
log2(FC) IGFBP5 vs TRFE (log2 fold change) [8]: -2.3
log2(FC) IGFBP5 vs TRFE (log2 fold change) [9]: -1.7
log2(FC) IGFBP5 vs TRFE (log2 fold change) [10]: -5.5
log2(FC) IGFBP5 vs BSA (log2 fold change) [11]: -0.8
log2(FC) IGFBP5 vs BSA (log2 fold change) [12]: -2.2
log2(FC) IGFBP5 vs BSA (log2 fold change) [13]: -4.9
log2(FC) IGFBP5 vs BSA (log2 fold change) [14]: -3.8
log2(FC) IGFBP5 vs BSA (log2 fold change) [15]: -1.6
log2(FC) IGFBP5 vs BSA (log2 fold change) [16]: -4.3
log2(FC) IGFBP5 vs BSA (log2 fold change) [17]: -1.5
log2(FC) IGFBP5 vs BSA (log2 fold change) [18]: -2.2
log2(FC) IGFBP5 vs BSA (log2 fold change) [19]: -2.5
log2(FC) IGFBP5 vs BSA (log2 fold change) [20]: -5.9
Substance: recombinant human IGFBP5 (from UniProt P24593 21-272) (ligand)
